Patent publication USRE47150 (Bayer, dated 2018)
Substitutions are numbered along the chain they refer to. Names may count otherwise.

T1: human tissue factor pathway inhibitor (TFPI) (human, UniProt P10646 29-304, limits assumed)
T1 construct: bought; also called hTFPI; human TFPI
T1 sequence (looked up): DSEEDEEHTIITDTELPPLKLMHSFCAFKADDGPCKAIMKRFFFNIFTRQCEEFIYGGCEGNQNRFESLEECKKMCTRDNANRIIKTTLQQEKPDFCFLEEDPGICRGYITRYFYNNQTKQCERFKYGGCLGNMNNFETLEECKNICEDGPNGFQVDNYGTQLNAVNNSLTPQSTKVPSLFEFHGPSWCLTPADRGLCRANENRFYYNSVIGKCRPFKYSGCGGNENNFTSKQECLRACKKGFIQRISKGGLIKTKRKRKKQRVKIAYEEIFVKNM

T2: mouse tissue factor pathway inhibitor (TFPI) (mouse, UniProt O54819 29-289, limits assumed)
T2 construct: bought; also called mTFPI; murine TFPI
T2 sequence (looked up): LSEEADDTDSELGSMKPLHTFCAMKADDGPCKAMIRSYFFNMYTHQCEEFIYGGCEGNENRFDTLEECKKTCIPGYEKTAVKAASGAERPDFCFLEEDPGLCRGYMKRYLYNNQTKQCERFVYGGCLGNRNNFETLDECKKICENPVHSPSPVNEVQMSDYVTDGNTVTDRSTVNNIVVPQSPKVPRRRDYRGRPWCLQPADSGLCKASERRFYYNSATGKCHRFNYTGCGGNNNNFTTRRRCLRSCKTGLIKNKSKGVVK

B1: 2A8 HC S31V+I51D+S55R+S56G+K99V/LC Y48F+D91L+V96W (Fab, V domains shown)
VH: QVQLVESGGGLVQPGGSLRLSCAASGFTFRVYGMSWVRQAPGKGLEWVSSDRGSRGSTYYADSVKGRFTISRDNSKNTLYLQMNSLRAEDTAVYYCARVYRYWFDYWGQGTLVTVSS
VL: DIELTQPPSVSVAPGQTARISCSGDNLRNYYAHWYQQKPGQAPVVVIFYDNNRPSGIPERFSGSNSGNTATLTISGTQAEDEADYYCQSWLDGVPWFGGGTKLTVLG
B2: 2A8 HC S31V+S35L+I51D+S54F+K99V/LC N51V+D91K (Fab, V domains shown)
VH: B1 VH with S35L, S54F, R55S, G56S
VL: B1 VL with F48Y, N51V, L91K, W96V
B3: 2A8 HC S35D+K99L/LC unchanged (Fab, V domains shown)
VH: B1 VH with V31S, S35D, D51I, R55S, G56S, V99L
VL: B1 VL with F48Y, L91D, W96V
B4: 2A8 HC S35D+K99L/LC Y48F+S89A+D91L+V96W (Fab, V domains shown)
VH: B1 VH with V31S, S35D, D51I, R55S, G56S, V99L
VL: B1 VL with S89A
B5: 2A8 HC S35D+R52S+K99L/LC Y48F+D91L+V96W (Fab, V domains shown)
VH: B1 VH with V31S, S35D, D51I, R52S, R55S, G56S, V99L
VL: B1 VL
B6: 2A8 HC S31V+S35D+S54F/LC Y48F+D91L+V96W (Fab, V domains shown)
VH: B1 VH with S35D, D51I, S54F, R55S, G56S, V99K
VL: B1 VL
B7: 2A8 HC S31V+I51D+S55R/LC Y48F+N51V+D91L (Fab, V domains shown)
VH: B1 VH with G56S, V99K
VL: B1 VL with N51V, W96V
B8: 2A8 HC S35D+I51D+K99L/LC Y48F+D91W (Fab, V domains shown)
VH: B1 VH with V31S, S35D, R55S, G56S, V99L
VL: B1 VL with L91W, W96V
B9: 2A8 HC S31V+S35D+I51D+K99V/LC Y48F+D91K (Fab, V domains shown)
VH: B1 VH with S35D, R55S, G56S
VL: B1 VL with L91K, W96V
B10: 2A8 HC S35D+K99L/LC Y48F+N51S+D91L+V96W (Fab, V domains shown)
VH: B1 VH with V31S, S35D, D51I, R55S, G56S, V99L
VL: B1 VL with N51S
B11: 2A8 HC S31V+S35D+S55R/LC Y48F+N51V+D91L+V96W (Fab, V domains shown)
VH: B1 VH with S35D, D51I, G56S, V99K
VL: B1 VL with N51V
B12: 2A8 HC S31V+I51E+S55R+K99V/LC Y48F+D91L+V96W (Fab, V domains shown)
VH: B1 VH with D51E, G56S
VL: B1 VL
B13: 2A8 HC S31V+S35D/LC Y48F+N51V (Fab, V domains shown)
VH: B1 VH with S35D, D51I, R55S, G56S, V99K
VL: B1 VL with N51V, L91D, W96V
B14: 2A8 HC S35D+S50A+K99L/LC Y48F+D91L+V96W (Fab, V domains shown)
VH: B1 VH with V31S, S35D, S50A, D51I, R55S, G56S, V99L
VL: B1 VL
B15: 2A8 HC S35D+S55G+K99L/LC Y48F+D91L+V96W (Fab, V domains shown)
VH: B1 VH with V31S, S35D, D51I, R55G, G56S, V99L
VL: B1 VL
B16: 2A8 HC S35D+K99L/LC Y48F+D91L+G93S+V96W (Fab, V domains shown)
VH: B1 VH with V31S, S35D, D51I, R55S, G56S, V99L
VL: B1 VL with G93S
B17: 2A8 HC S35D+K99L/LC Y48F+D91L+D92S+V96W (Fab, V domains shown)
VH: B1 VH with V31S, S35D, D51I, R55S, G56S, V99L
VL: B1 VL with D92S
B18: 2A8 HC S35D+K99L/LC D91L+V96W (Fab, V domains shown)
VH: B1 VH with V31S, S35D, D51I, R55S, G56S, V99L
VL: B1 VL with F48Y
B19: 2A8 HC S35D+S55R+K99L/LC A13S+Y48F+N51V+D91W (Fab, V domains shown)
VH: B1 VH with V31S, S35D, D51I, G56S, V99L
VL: B1 VL with A13S, N51V, L91W, W96V
B20: 2A8 HC S35D+I51D+S55R+K99V/LC Y48F+N51V (Fab, V domains shown)
VH: B1 VH with V31S, S35D, G56S
VL: B1 VL with N51V, L91D, W96V
B21: 2A8 HC S35D+K99L/LC Y48F+D91L+V94T+V96W (Fab, V domains shown)
VH: B1 VH with V31S, S35D, D51I, R55S, G56S, V99L
VL: B1 VL with V94T
B22: 2A8 HC S31V+S54F+K99L/LC N51V (Fab, V domains shown)
VH: B1 VH with D51I, S54F, R55S, G56S, V99L
VL: B1 VL with F48Y, N51V, L91D, W96V
B23: 2A8 HC S35D+I51E+S55R+K99L/LC Y48F+N51V+D91L+V96W (Fab, V domains shown)
VH: B1 VH with V31S, S35D, D51E, G56S, V99L
VL: B1 VL with N51V
B24: 2A8 HC S35D+S50A+S55R+K99L/LC Y48F+N51V+D91W (Fab, V domains shown)
VH: B1 VH with V31S, S35D, S50A, D51I, G56S, V99L
VL: B1 VL with N51V, L91W, W96V
B25: 2A8 HC S35D+K99L/LC Y48F+D91L+P95V+V96W (Fab, V domains shown)
VH: B1 VH with V31S, S35D, D51I, R55S, G56S, V99L
VL: B1 VL with P95V
B26: 2A8 HC S31V+S35L+I51E+S54F+K99V/LC N51V+D91K (Fab, V domains shown)
VH: B1 VH with S35L, D51E, S54F, R55S, G56S
VL: B1 VL with F48Y, N51V, L91K, W96V
B27: 2A8 HC S35D+R52S+S55R+K99L/LC Y48F+N51V+D91W (Fab, V domains shown)
VH: B1 VH with V31S, S35D, D51I, R52S, G56S, V99L
VL: B1 VL with N51V, L91W, W96V
B28: 2A8 HC S35D+S54F+S55R+K99L/LC D91L+V96W (Fab, V domains shown)
VH: B1 VH with V31S, S35D, D51I, S54F, G56S, V99L
VL: B1 VL with F48Y
B29: 2A8 HC S31V+K99V/LC N51V+D91W (Fab, V domains shown)
VH: B1 VH with D51I, R55S, G56S
VL: B1 VL with F48Y, N51V, L91W, W96V
B30: 2A8 HC S31V+S50A+I51D+S55R+K99V/LC Y48F+D91L+V96W (Fab, V domains shown)
VH: B1 VH with S50A, G56S
VL: B1 VL

target: T1, human tissue factor pathway inhibitor …; assay: competitive ELISA

Row | variant/HC_K99L [ratio] | Binder
1 | 16.2 | B1
2 | 8.6 | B2
3 | 3.9 | B3
4 | 4.4 | B4
5 | 3.9 | B5
6 | 5.4 | B6
7 | 8.4 | B7
8 | 0.8 | B8
9 | 0.6 | B9
10 | 19.9 | B10
11 | 8.7 | B11
12 | 9.2 | B12
13 | 7.5 | B13
14 | 4 | B14
15 | 18.1 | B15
16 | 14.2 | B16
17 | 20.7 | B17
18 | 7.1 | B18
19 | 20.1 | B19
20 | 8 | B20
21 | 18.6 | B21
22 | 16.3 | B22
23 | 10.4 | B23
24 | 10.9 | B24
25 | 10.2 | B25
26 | 4.9 | B26
27 | 10.1 | B27
28 | 14.9 | B28
29 | 6.7 | B29
30 | 16.6 | B30

target: T2, mouse tissue factor pathway inhibitor …; assay: competitive ELISA

Row | variant/HC_K99L [ratio] | Binder
31 | 12.1 | B1
32 | 8.2 | B2
33 | 4.5 | B3
34 | 6.1 | B4
35 | 3 | B5
36 | 4.2 | B6
37 | 6.5 | B7
38 | 0.2 | B8
39 | 0.1 | B9
40 | 20.3 | B10
41 | 8.2 | B11
42 | 7 | B12
43 | 7.2 | B13
44 | 4.6 | B14
45 | 18.2 | B15
46 | 15.6 | B16
47 | 20.5 | B17
48 | 5.4 | B18
49 | 19.9 | B19
50 | 2.7 | B20
51 | 19.3 | B21
52 | 15.7 | B22
53 | 8 | B23
54 | 12.6 | B24
55 | 13.6 | B25
56 | 3.9 | B26
57 | 7.9 | B27
58 | 12.1 | B28
59 | 5.6 | B29
60 | 9.3 | B30
